In patent US20040018971A1 (published 2004):

What was measured:
[1] = molecular target: HLA-A*0301 (purified HLA class I molecule) (human); assay: competition vs 125I standard peptide, purified HLA
[2] = molecular target: T1, HLA-A*1101 (purified HLA class I molecule) (human); assay: competition vs 125I standard peptide, purified HLA
T1 construct: Purified MHC molecule

[3] = molecular target: T2, HLA-A*3101 (purified HLA class I molecule) (human); assay: competition vs 125I standard peptide, purified HLA
T2 construct: Purified MHC molecule

[4] = molecular target: T3, HLA-A*3301 (purified HLA class I molecule) (human); assay: competition vs 125I standard peptide, purified HLA
T3 construct: Purified MHC molecule

[5] = molecular target: T4, HLA-A*6801 (purified HLA class I molecule) (human); assay: competition vs 125I standard peptide, purified HLA
T4 construct: Purified MHC molecule

[6] = molecular target: T5, HLA-A*0201 (human); assay: competitive inhibition of 125I-labeled probe peptide binding to purified HLA-A*0201
T5 construct: also called HLA-A2.1; A2.1

[7] = molecular target: HLA-A*0206 (human); assay: competition with 125I probe peptide for purified HLA
[8] = molecular target: HLA-A*0203 (human); assay: as above
[9] = molecular target: HLA-A*0202 (human); assay: as above
[10] = molecular target: HLA-DR1 (DRB1*0101), purified HLA class II molecule (human); assay: competition with 125I-labelled probe peptide, purified HLA-DR
[11] = molecular target: HLA-A*1101 (purified HLA class I molecule) (human); assay: inhibition of 125I probe peptide binding to purified HLA; ratio to standard peptide; minus sign not explained
[12] = molecular target: T6, HLA-A*0301 (purified HLA class I molecule) (human); assay: as above
T6 construct: also called A3

[13] = molecular target: T7, HLA-DRB1*0401 (human); assay: competition with 125I-labeled standard peptide, purified HLA-DR, gel filtration
T7 construct: also called DR4w4

[14] = molecular target: T8, HLA-DRB1*0701 (human); assay: as above
T8 construct: also called DR7

[15] = molecular target: T9, HLA-DRB1*0101 (human); assay: as above
T9 construct: also called DR1

[16] = molecular target: T10, HLA-A*0101 (human); assay: competition with 125I-labelled probe peptide for purified HLA-A*0101, gel filtration
T10 construct: also called HLA-A1

[17] = molecular target: T11, HLA-DR7 (DRB1*0701) (human); assay: competition with 125I-labelled probe peptide on purified HLA-DR, gel filtration; IC50 of standard peptide / IC50 of test peptide
T11 construct: Purified HLA class II molecule

[18] = molecular target: T12, HLA-DR4w4 (DRB1*0401) (human); assay: as above
T12 construct: Purified HLA class II molecule

[19] = molecular target: HLA-DR1 (DRB1*0101) (human); assay: as above
[20] = molecular target: HLA-A*6802 (human); assay: competition with 125I probe peptide for purified HLA
[21] = molecular target: T13, HLA-A*0101 (human); assay: competition with a 125I-labelled probe peptide for purified HLA-A*0101, gel filtration; ratio against the A*0101 standard peptide 944.02 [..] (25 nM)
T13 construct: Purified HLA molecule, 5 to 500 nM in the assay; also called HLA-A1

ILWKDIFHK (also called Her2/neu.167) [HER2/neu peptide, position 167, 9 amino acids]
relative binding ratio [1]: 0.28 ratio (IC50 standard/IC50 test) | relative binding ratio [2]: 0.31 ratio (IC50 standard/IC50 test) | relative binding ratio [3]: 0.22 ratio (IC50 standard/IC50 test) | relative binding ratio [4]: 0.03 ratio (IC50 standard/IC50 test) | relative binding ratio [5]: 0.0046 ratio (IC50 standard/IC50 test)

LLNWCMQIAK [HER2/neu peptide, position 822, 10 amino acids]
relative binding ratio [1]: 0.14 ratio (IC50 standard/IC50 test) | relative binding ratio [2]: 0.14 ratio (IC50 standard/IC50 test) | relative binding ratio [3]: 0.01 ratio (IC50 standard/IC50 test) | relative binding ratio [4]: 0.0088 ratio (IC50 standard/IC50 test) | relative binding ratio [5]: 0.0086 ratio (IC50 standard/IC50 test)

ILKETELRK [HER2/neu peptide, position 714, 9 amino acids]
relative binding ratio [1]: 0.019 ratio (IC50 standard/IC50 test) | relative binding ratio [2]: 0.0023 ratio (IC50 standard/IC50 test) | relative binding ratio [3]: 0.0009 ratio (IC50 standard/IC50 test) | relative binding ratio [4]: 0.001 ratio (IC50 standard/IC50 test) | relative binding ratio [5]: 0.0001 ratio (IC50 standard/IC50 test)

QLFEDNYALA [Her2/neu.106]
IC50 [6]: ≤ 500 nM

QLMPYGCLL [Her2/neu.799 QLMPYGCLL]
IC50 [7]: 712 nM | IC50 [8]: 114 nM | IC50 [9]: 977 nM

QPDVRPQPPSPREGP (also called Her2/neu.1142) [HER2/neu DR supermotif exemplary 15-mer QPDVRPQPPSPREGP (position 1142)]
relative binding ratio [10]: 0.0007 ratio (IC50 standard / IC50 test)

CSPMCKGSR (also called Her2/neu.195 (9-mer)) [HER2/neu peptide, position 195, 9 amino acids]
relative binding ratio [11]: -0.0001 ratio (IC50 standard / IC50 test) | relative binding ratio [12]: -0.0008 ratio (IC50 standard / IC50 test)

B1: HER2/neu DR supermotif exemplary peptide LLVVVLGVVFGILIK (position 662) (peptide)
peptide: LLVVVLGVVFGILIK
notes: synthetic 15-mer; also called Her2/neu.662
relative binding ratio [13]: -0.0025 ratio (standard IC50 / test IC50) | relative binding ratio [14]: 0.0019 ratio (standard IC50 / test IC50) | relative binding ratio [15]: -0.0008 ratio (standard IC50 / test IC50)

ETHLDMLRHLY (also called Her2/neu.40) [HER2/neu peptide, position 40, 11 amino acids]
relative binding ratio [16]: 0.28 ratio (IC50 of standard peptide / IC50 of test peptide)

B2: HER2/neu DR supermotif exemplary peptide KEILDEAYVMAGVGS (position 765) (peptide)
peptide: KEILDEAYVMAGVGS
notes: synthetic 15-mer; also called Her2/neu.765
relative binding ratio [13]: 0.0073 ratio (standard IC50 / test IC50) | relative binding ratio [14]: -0.0011 ratio (standard IC50 / test IC50)

DSECRPRFR (also called Her2/neu.962 (9-mer)) [HER2/neu peptide, position 962, 9 amino acids]
relative binding ratio [11]: -0.0002 ratio (IC50 standard / IC50 test) | relative binding ratio [12]: -0.0002 ratio (IC50 standard / IC50 test)

ILIKRRQQK [HER2/neu peptide, position 673, 9 amino acids]
relative binding ratio [1]: 0.38 ratio (IC50 standard/IC50 test) | relative binding ratio [2]: 0.0097 ratio (IC50 standard/IC50 test) | relative binding ratio [3]: 0.076 ratio (IC50 standard/IC50 test) | relative binding ratio [4]: 0.0064 ratio (IC50 standard/IC50 test) | relative binding ratio [5]: 0.0001 ratio (IC50 standard/IC50 test)

DMKLRLPASPETHLD (also called Her2/neu.30) [HER2/neu peptide DMKLRLPASPETHLD (position 30)]
relative binding ratio [17]: -0.0013 ratio | relative binding ratio [18]: -0.0025 ratio | relative binding ratio [19]: 0.001 ratio

ETELVEPLTPSGAMP (also called Her2/neu.693) [HER2/neu peptide ETELVEPLTPSGAMP (position 693)]
relative binding ratio [17]: -0.0013 ratio | relative binding ratio [18]: -0.0025 ratio | relative binding ratio [19]: 0.006 ratio

QLFEDNYALA [Her2/neu.106 (10-mer) QLFEDNYALA]
IC50 [7]: 218 nM | IC50 [20]: 74 nM | IC50 [8]: 9.1 nM | IC50 [9]: 662 nM

TLEEITGYLY (also called Her2/neu.402) [HER2/neu peptide, position 402, 10 amino acids]
relative binding ratio (IC50 of standard peptide / IC50 of test peptide) [21]: 1.1 ratio

PSGVKPDLSY [HER2/neu peptide, position 601, 10 amino acids]
relative binding ratio [16]: 0.001 ratio (IC50 of standard peptide / IC50 of test peptide)

TCSPQPEY (also called Her2/neu.1132) [HER2/neu peptide, position 1132, 8 amino acids]
relative binding ratio (IC50 of standard peptide / IC50 of test peptide) [21]: -0.0021 ratio

PTHDPSPLQRY [HER2/neu peptide, position 1102, 11 amino acids]
relative binding ratio [16]: 0.016 ratio (IC50 of standard peptide / IC50 of test peptide)

GLACHQLCA [Her2/neu.508]
IC50 [6]: ≤ 500 nM

CAGGCARCK (also called Her2/neu.220 (9-mer)) [HER2/neu peptide, position 220, 9 amino acids]
relative binding ratio [11]: -0.0002 ratio (IC50 standard / IC50 test) | relative binding ratio [12]: -0.0002 ratio (IC50 standard / IC50 test)
